Reference: patent US10130682B2, “Methods of using pigment epithelium derived factor (PEDF) for the treatment and prevention of agent-induced gonadal or uterine toxicity” (Ramot at Tel-Aviv University Ltd., priority 2014, dated 2018)

Tests used:
AKT [1] = experiment: AKT phosphorylation (western blot) in serum-starved LH-15 cells; assay type: cell-based, rat; details: 1 nM rPEDF, various durations, P<0.05
Method: (§1) Rat granulosa cell line LH-15 [Suh et al. J Cell Biol (1992) 119: 439-450] was cultured in hormone-free DMEM-F12 medium, supplemented with penicillin (100 IU/ml; Biological Industries), streptomycin ([…]; Biological Industries) and 10% charcoal-stripped fetal bovine serum (CS-FBS; Invitrogen) (culture medium), as described previously (Breckwoldt et al. 1996, Sasson & Amsterdam 2002). Cells were serum-starved for 16 hours (0.1% CS-FBS) prior to and during recombinant PEDF (rPEDF) stimulation or incubated in 2% CS-FBS during H2O2 stimulation.
(§2) Samples were homogenized in cold lysis buffer (20 mM HEPES, 150 mM NaCl and 0.2% Igepal; sigma) and centrifuged at 12,000 rpm, for 15 min, at 4° C.). Proteins were separated by sodium dodecyl sulfate polyacrylamide gel electrophoresis (SDS-PAGE; 10%; Bio-Rad, Israel). Separated proteins were transferred onto nitrocellulose membranes (Whatman GmbH, Germany) in a mini tank transfer unit (TE 22, Amersham, UK). Approximate molecular masses were determined by comparison with the migration of pre-stained protein standards (Bio-Rad). Blots were blocked for 1 hour in TBST (10 mM Tris-HCl, pH=8.0, 150 mM NaCl, 0.05% Tween 20) containing 5% skim-milk (Alba, N.Y., USA) followed by an over-night incubation at 4° C. with primary antibodies. […] Intensity of the protein bands was quantified by Image J […] (NIH).

BAX = BAX protein level (western blot) in LH-15 cells under H2O2; assay type: cell-based, rat; details: exogenous rPEDF added to H2O2; P<0.05
Method: as §1, §2

VEGF [2] = experiment: Uterine VEGF protein (western blot), sub-acute tamoxifen model; assay type: in vivo, mouse; details: rPEDF 10 mg/kg SC with tamoxifen 2.5 μg/mouse daily for 7 days
Method: (§3) DXR damage was evaluated in 7 weeks ICR female mice following treatment for superovulation with pregnant mares' serum (PMSG, 7 IU) SC on day 0 and human chorionic gonadotropin (hCG, […]) SC on day 2. On day 1, mice were administered with DXR (6 mg/kg) or saline (control) IV. Mice ovaries were retrieved on day 3 (FIG. 1A). The ability of rPEDF to overcome the destructive effect of DXR 7 weeks ICR female mice were treated with DXR (6 mg/kg) or saline (control) IV on day 0, rPEDF (2 mg/kg) or TRIS (control) was administered SC on day 1, followed by induction for superovulation with PMSG (7 IU) SC on day 4 and hCG (7 IU) SC on day 6. Mice ovaries were retrieved on day 7 (FIG. 2A). […] Mice uteri were excised at day 7. […] Mice treated with tamoxifen alone served as control. […] Mice treated with tamoxifen alone served as control.
(§4) Samples were homogenized in cold lysis buffer (20 mM HEPES, 150 mM NaCl and 0.2% Igepal; sigma) and centrifuged at 12,000 rpm, for 15 min, at 4° C.). Proteins were separated by sodium dodecyl sulfate polyacrylamide gel electrophoresis (SDS-PAGE; 10%; Bio-Rad, Israel). […] Approximate molecular masses were determined by comparison with the migration of pre-stained protein standards (Bio-Rad). […] Intensity of the protein bands was quantified by Image J […] (NIH).

ERβ = experiment: Uterine ERβ mRNA (qPCR), prolonged tamoxifen model; assay type: in vivo, mouse; details: tamoxifen models taken together
SOD-1 = SOD-1 mRNA level (qPCR) in LH-15 cells under H2O2; assay type: cell-based, rat; details: rPEDF 1 nM added to H2O2
Method: as §1
(§5) Total RNA was isolated from various tissues (ovaries, eyes) or from granulosa cells, using Trizol reagent (Invitrogen) according to manufacturer's instructions, and quantified with the Nano-Drop spectrophotometer (ND-1000; Thermo Scientific). First-strand cDNA was produced by RT (Maxima™ Reverse transcriptase, Thermo Scientific) from a total of 1 μg RNA, using oligo-dt primers (Thermo Scientific). DNA was amplified using 1 μl RT reaction and 50 pmol gene-specific primers in ReadyMix™ mixture (Sigma). […] Changes in the level of expression of mRNA were detected by SYBR green reagent (SYBR® Green PCR Master Mix, ABI, Carlsbad, Calif., USA) along with 15 ng cDNA and specific primers, on a StepOnePlus Real-Time PCR System (Applied Biosystems, Foster City, Calif., USA).

GPX-1 = GPX-1 mRNA level (qPCR) in LH-15 cells under H2O2; assay type: cell-based, rat; details: rPEDF 1 nM added to H2O2
Method: as §1, §5

OVX ICR mice = experiment: Uterine weight, prolonged tamoxifen model in ovariectomized mice; assay type: in vivo, mouse
Method: as §3
(§6) At the end of each experiment, uteri were isolated, excised and weighed.

LH-15 cells = experiment: MTT cell viability assay in LH-15 granulosa cells under H2O2; assay type: cell-based, rat; details: rPEDF 1 nM or 5 nM with 100 or 200 μM H2O2, 24 hours
Method: as §1
Equal amount of LH-15 cells were seeded onto 6-well plates to a final volume of 500 μl. Following treatments, each well was incubated for 30 minutes with 10 μl of MTT [3-(4, 5-Dimethylthiazol-2-yl)-2, 5-diphenyltetrazolium bromide; 5 mg/ml] followed by an additional 2-4 hours incubation period at 37° C. The reaction was terminated by addition of 110 μl HCl (0.07 M in isopropanol) and OD 560 nm was measured by the SpectraMax 190 microplate reader ([…], Eugene, Oreg., USA).

[3] = test system: ovariectomized (OVX) ICR mice; experiment: Uterine weight, sub-acute tamoxifen model in ovariectomized mice; assay type: in vivo, mouse; details: rPEDF 10 mg/kg SC with tamoxifen 2.5 μg/mouse daily for 7 days
Method: as §3, §6

JNK = experiment: Uterine JNK phosphorylation (western blot), sub-acute tamoxifen model; assay type: in vivo, mouse; details: 7 days
Method: as §3, §4

VEGF [4] = experiment: Uterine VEGF protein (western blot), prolonged tamoxifen model; assay type: in vivo, mouse; details: rPEDF 2 mg/kg SC once every 3 days from day 8 of one-month tamoxifen treatment
Method: as §3, §4

ERα [5] = experiment: Uterine ERα mRNA (qPCR), sub-acute tamoxifen model; assay type: in vivo, mouse; details: sub-acute tamoxifen model
ICR female mice = experiment: Number of ovulated oocytes in DXR-treated mice given rPEDF; assay type: in vivo, mouse; details: rPEDF 2 mg/kg SC the day after DXR 6 mg/kg IV; vs DXR alone
Method: FIG. 2A is an illustration depicting the experimental setting: 7 weeks ICR female mice (n=4/group) were treated with DXR or saline (control), at the day after mice were administrated with rPEDF or TRIS (control). On the fourth day of the experiment mice were induced for superovulation with the standard PMSG/hCG protocol [Ben-Aharon et al. Reproductive Biology and Endocrinology: RB&E (2010) 8: 20]. Mice were sacrificed 16-17 hours after hCG administration.
DXR damage was evaluated in 7 weeks ICR female mice following treatment for superovulation with pregnant mares' serum (PMSG, 7 IU) SC on day 0 and human chorionic gonadotropin (hCG, […]) SC on day 2. On day 1, mice were administered with DXR (6 mg/kg) or saline (control) IV. Mice ovaries were retrieved on day 3 (FIG. 1A). The ability of rPEDF to overcome the destructive effect of DXR 7 weeks ICR female mice were treated with DXR (6 mg/kg) or saline (control) IV on day 0, rPEDF (2 mg/kg) or TRIS (control) was administered SC on day 1, followed by induction for superovulation with PMSG (7 IU) SC on day 4 and hCG (7 IU) SC on day 6. […]
cumulus-enclosed oocytes were isolated from the oviductal ampullae into M2 medium (Sigma), 16-18 hrs after hCG administration. Cumulus cells were removed by a brief exposure to 400 IU/ml hyaluronidase (Sigma) and the number of ovulated oocytes was counted under binocular.

ERα [6] = experiment: Uterine ERα protein (western blot), prolonged tamoxifen model; assay type: in vivo, mouse
Method: as §3, §4

[7] = test system: progesterone receptor (PR); experiment: Uterine PR mRNA (qPCR), prolonged tamoxifen model; assay type: in vivo, mouse; details: tamoxifen models taken together
Method: DXR damage was evaluated in 7 weeks ICR female mice following treatment for superovulation with pregnant mares' serum (PMSG, 7 IU) SC on day 0 and human chorionic gonadotropin (hCG, […]) SC on day 2. On day 1, mice were administered with DXR (6 mg/kg) or saline (control) IV. Mice ovaries were retrieved on day 3 (FIG. 1A). The ability of rPEDF to overcome the destructive effect of DXR 7 weeks ICR female mice were treated with DXR (6 mg/kg) or saline (control) IV on day 0, rPEDF (2 mg/kg) or TRIS (control) was administered SC on day 1, followed by induction for superovulation with PMSG (7 IU) SC on day 4 and hCG (7 IU) SC on day 6. Mice ovaries were retrieved on day 7 (FIG. 2A). […] Mice uteri were excised at day 7. […] Mice treated with tamoxifen alone served as control. […]
as §5, with “First-strand cDNA was produced by RT (Maxima™ Reverse transcriptase, Thermo Scientific) from a total of 1 μg RNA, using oligo-dt primers (Thermo Scientific).” left out

CD34 = CD34 immunohistochemical staining of uterine blood vessels, prolonged tamoxifen model; assay type: in vivo, mouse; details: prolonged treatment
Method: as §3
Paraffin-embedded sections were deparaffinized, microwave heated while being subjected to an antigen retrieval agent (H-3300, Vector Laboratories Inc., Burlingame, Calif., USA), cooled on ice to room temperature, rinsed in PBS, incubated for 1 hour with PBSTg (0.2% Tween and gelatin in PBS), washed with PBS, blocked for 10 minutes in blocking solution (Cell Marque Corporation, Calif., USA) and incubated overnight with anti PNPLA2 or anti-CD34 primary antibodies. […]

ERα [8] = experiment: Uterine ERα mRNA (qPCR), prolonged tamoxifen model; assay type: in vivo, mouse; details: prolonged tamoxifen model
AKT [9] = experiment: Uterine AKT phosphorylation (western blot), sub-acute tamoxifen model; assay type: in vivo, mouse; details: 7 days
Method: as §3, §4

B1: rPEDF: Human recombinant PEDF (NM_002615.4, SEQ ID NO: 1) expressed in E. coli BL21, purified on Ni-NTA His-Bind resin (protein, UniProt P36955 20-418, looked up)
Pigment epithelium-derived …: QNPASPPEEGSPDPDSTGALVEEEDPFFKVPVNKLAAAVSNFGYDLYRVRSSTSPTTNVLLSPLSVATALSALSLGAEQRTESIIHRALYYDLISSPDIHGTYKELLDTVTAPQKNLKSASRIVFEKKLRIKSSFVAPLEKSYGTRPRVLTGNPRLDLQEINNWVQAQMKGKLARSTKEIPDEISILLLGVAHFKGQWVTKFDSRKTSLEDFYLDEERTVRVPMMSDPKAVLRYGLDSDLSCKIAQLPLTGSMSIIFFLPLKVTQNLTLIEESLTSEFIHDIDRELKTVQAVLTVPKLKLSYEGEVTKSLQEMKLQSLFDSPDFSKITGKPIKLTQVEHRAGFEWNEDGAGTTPSPGLQPAHLTFPLDYHLNQPFIFVLRDTDTGALLFIGKILDPRGP
modifications: His tag
For B1, the “phosphorylation of AKT” value (AKT [1]) was “induced prolonged, time-dependent phosphorylation of AKT starting at 5 minutes”, the “BAX expression under H2O2” value (BAX) was “decreased its expression” and the “uterine VEGF protein levels, tamoxifen+rPEDF vs tamoxifen alone” value (VEGF [2]) was “significant decrease”. The “ERβ expression in uteri, rPEDF with tamoxifen” value (ERβ) was “without modifying the expression”, the “SOD-1 mRNA expression under H2O2” value (SOD-1) was “elevated their expression” and the “GPX-1 mRNA expression under H2O2” value (GPX-1) was “elevated their expression”. For the same molecule, the “effectiveness of rPEDF treatment by timing of administration” value (OVX ICR mice; preliminary analysis, data not shown, prolonged tamoxifen model) was “more effective when administered following a short period of initiation with tamoxifen”, the “uterine weights, tamoxifen+rPEDF vs tamoxifen alone” value (OVX ICR mice; rPEDF 2 mg/kg SC once every 3 days from day 8 of one-month tamoxifen treatment) was “down-regulated in mice treated with tamoxifen+rPEDF, though not statistically significant (p=0.2)” and the “cells viability (MTT) under H2O2” value (LH-15 cells) was “significantly (P<0.05) decreased H2O2-induced reduction in cells viability”. For the same molecule, the “uterine weight, tamoxifen+rPEDF vs tamoxifen alone” value [3] was “significant decrease”, the “uterine JNK phosphorylation, tamoxifen+rPEDF vs tamoxifen alone” value (JNK) was “increase in phosphorylation of JNK” and the “uterine VEGF protein expression, tamoxifen+rPEDF vs tamoxifen alone” value (VEGF [4]) was “significantly decreased”. The “ERα mRNA levels in uteri, rPEDF with tamoxifen” value (ERα [5]) was “able to attenuate the sub-acute tamoxifen-induced reduction in ERα mRNA levels”, the “number of ovulated oocytes” value (ICR female mice) was “significantly (P<0.05) decreased DXR-induced reduction in number of ovulated oocytes” and the “ERα protein expression in uteri, rPEDF with tamoxifen” value (ERα [6]) was “down-regulate the expression of ERα protein”. The “PR expression in uteri, rPEDF with tamoxifen” value [7] was “without modifying the expression”, the “CD34 staining in uteri, tamoxifen+rPEDF vs tamoxifen alone” value (CD34) was “decrease in CD34 staining” and the “ERα mRNA levels in uteri, rPEDF with tamoxifen” value (ERα [8]) was “able to reverse the prolonged tamoxifen-induced reduction in ERα mRNA levels”. For the same molecule, the “uterine AKT phosphorylation, tamoxifen+rPEDF vs tamoxifen alone” value (AKT [9]) was “significant decrease in phosphorylation of AKT”.
